One may read the EC50 as the concentration that produces a half-maximal response. In general, EC50 (read off the curve) refers to the midpoint of the concentration-response curve. One may read the Kd as a measure of binding affinity in units of concentration. For orientation: koff means a measure of how fast the partners let go of each other. Usually kon stands for the second-order rate constant of association.

Test [1] concerns the target T1, mouse OX40 protein expressed on the surface of 293T cells (mouse, UniProt P47741 20-272).
T1 construct: whole, on cells
T1 sequence (looked up): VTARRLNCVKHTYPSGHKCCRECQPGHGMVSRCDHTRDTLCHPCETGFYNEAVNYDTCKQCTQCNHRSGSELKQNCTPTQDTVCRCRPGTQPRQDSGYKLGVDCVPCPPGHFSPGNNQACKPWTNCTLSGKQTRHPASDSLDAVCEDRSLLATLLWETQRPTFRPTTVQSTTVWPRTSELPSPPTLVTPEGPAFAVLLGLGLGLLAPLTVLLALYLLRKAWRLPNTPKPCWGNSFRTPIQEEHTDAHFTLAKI
The experiment in a line: flow cytometry on 293T cells transiently transfected with mouse OX40, goat anti-human IgG PE, MFI.
Procedure: (§1) Then, after washing twice with PBS, the cells were incubated with the secondary goat anti-human IgG PE antibody (1:200; Abcam, Cat. ab98596) at room temperature for 30 minutes.

Test [2] deals with T2, human OX40 protein expressed on the surface of cells (human, UniProt P43489 29-277).
T2 construct: also called hOX40
T2 sequence: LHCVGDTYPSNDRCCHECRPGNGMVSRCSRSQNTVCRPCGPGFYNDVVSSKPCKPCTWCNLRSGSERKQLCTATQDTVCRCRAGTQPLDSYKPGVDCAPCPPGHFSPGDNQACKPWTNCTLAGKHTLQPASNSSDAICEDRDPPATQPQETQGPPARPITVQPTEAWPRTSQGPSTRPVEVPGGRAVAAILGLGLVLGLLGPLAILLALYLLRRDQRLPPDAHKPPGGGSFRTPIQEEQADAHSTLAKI
The test can be described thus: flow cytometry (MFI) on CD3/CD28-activated primary human CD4+CD3+ T cells, first donor. On the technique in general: In flow cytometry, cells or beads pass a laser one at a time.

Test [3] addresses T3, biotinylated OX40 recombinant protein (UniProt P43489 29-216, limits assumed, biotinylated).
T3 construct: also called OX40 protein; Biotin-OX40
T3 sequence (looked up): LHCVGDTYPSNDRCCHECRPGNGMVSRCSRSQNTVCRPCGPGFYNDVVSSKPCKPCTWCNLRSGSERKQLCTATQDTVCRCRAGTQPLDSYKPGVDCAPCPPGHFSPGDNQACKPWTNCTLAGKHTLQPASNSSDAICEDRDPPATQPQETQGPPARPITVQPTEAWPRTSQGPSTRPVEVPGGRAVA
The test can be described thus: ELISA, plate coated with the antibody, biotinylated OX40 recombinant protein titrated (x axis = its concentration in nM), OD 450nm. On the technique in general: In an ELISA, binding on a coated surface is turned into a signal by an enzyme label.
Procedure: The next day, the plate was blocked with 1% BSA (Sangon Biotech, catalog number A600332-0100) in PBST at 37° C. for 2 hours, and then a defined concentration of biotinylated OX40 recombinant protein was added.

The target of test [4] is T2, human OX40 protein expressed on the …. The experiment in a line: cell-based or functional assay.
Test [5] shares this target. The test can be described thus: flow cytometry (MFI) on 293T cells expressing human OX40.
Test [6] has as its target T4, human CD40 protein expressed on the surface of 293T cells (human, UniProt P25942 21-277).
T4 construct: whole, on cells
The experiment in a line: flow cytometry on 293T cells transiently transfected with human CD40 (293T-hCD40), goat anti-human IgG PE, MFI.
Procedure: as §1

The target in test [7] is T2, human OX40 protein expressed on the …. The test can be described thus: flow cytometry (MFI) on CD3/CD28-activated primary human CD4+CD3+ T cells, second donor.
Procedure: Activation of human T cells were evaluated using CD3⁺ T cells isolated from two human donors' peripheral blood mononuclear cells (hPBMCs) pre-activated using CD3/CD28 Dynabeads.
The target in test [8] is T5, recombinant human OX40-mFc protein (human, UniProt P43489 29-214).
T5 construct: Recombinant dimer (mFc-tagged); also called hOX40.mFc; recombinant human OX40 protein; not shown: mFc tag
T5 sequence: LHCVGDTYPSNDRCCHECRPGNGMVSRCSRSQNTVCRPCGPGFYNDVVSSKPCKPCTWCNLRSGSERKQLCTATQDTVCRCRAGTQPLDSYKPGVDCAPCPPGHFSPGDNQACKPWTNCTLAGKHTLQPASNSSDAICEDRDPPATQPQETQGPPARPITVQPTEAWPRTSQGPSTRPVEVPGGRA
The experiment in a line: BLI (Octet QKe), antibody on anti-human Fc sensor, OX40-mFc in solution, 25 C, pH 7.4, 1:1 model; Experiment A.

Test [9] addresses T6, cynomolgus monkey OX40 protein expressed on the surface of cells (cynomolgus monkey).
T6 construct: whole, on cells; On transiently transfected 293T cells
The test can be described thus: flow cytometry (MFI) on activated primary monkey T cells, donor Lot #200107.

For test [10], the target named is T2, human OX40 protein expressed on the …. The test can be described thus: flow cytometry (MFI) on transfected 293T cells.
For test [11], the target named is T6, cynomolgus monkey OX40 protein …. The experiment in a line: flow cytometry (MFI) on transfected 293T cells.
Test [12] shares this target. The test can be described thus: flow cytometry (MFI) on activated primary monkey T cells, donor M20Z013009.
The target of test [13] is T5, recombinant human OX40-mFc protein. The experiment in a line: BLI (Octet QKe), antibody on anti-human Fc sensor, OX40-mFc in solution, 25 C, pH 7.4, 1:1 model; Experiment B. (In general: In BLI a coated tip is dipped into the sample, and binding shifts an interference pattern.)
Procedure: The changes of binding signal were recorded, and the kinetic analysis of binding parameters were determined using the Model: 1:1 with the mass transfer limitation. The running buffer solution was prepared with PBS, pH 7.4, containing 0.1% BSA and 0.1% Tween 20. Prior to the kinetic binding experiment, the anti-human Fe capture sensor was rinsed with the running buffer, and the instrument was prewarmed to 25° C. […] The binding of OX40 protein and its antibodies was performed in duplicate with the running buffer at pH 7.4 and 25° C. In short, first, the anti-human Fc capture sensor was immersed in the running buffer for 300 seconds to set the first baseline. The sensor was then mixed with 200 nM test antibody solution for 600 seconds to load the antibody. The sensor was again immersed in the running buffer for 300 seconds to set the second baseline, and then associated with various concentrations of OX40 antigen for 900 seconds. Then dissociation was performed by immersing the sensor in the running buffer for another 900 seconds. In parallel, one sensor was selected as a reference, in which all loading, association, and dissociation steps were performed in the running buffer. […] The sensorgrams were analyzed by Fortebio data analysis software version 8.2 (ForteBio; Fremont, CA). First, the signals were subtracted from the negative control experiment, and compared to the baselines. The kinetic parameters were obtained by entirely fitting these specific sensorgrams with different antigen concentrations to the binding Model: 1:1.
Test [14] addresses T6, cynomolgus monkey OX40 protein …. The experiment in a line: flow cytometry (MFI) on 293T cells expressing cynomolgus monkey OX40.
Test [15] shares this target. The experiment in a line: flow cytometry (MFI) on activated primary monkey T cells, donor M20Z025008.

T4 sequence (P25942 21-277): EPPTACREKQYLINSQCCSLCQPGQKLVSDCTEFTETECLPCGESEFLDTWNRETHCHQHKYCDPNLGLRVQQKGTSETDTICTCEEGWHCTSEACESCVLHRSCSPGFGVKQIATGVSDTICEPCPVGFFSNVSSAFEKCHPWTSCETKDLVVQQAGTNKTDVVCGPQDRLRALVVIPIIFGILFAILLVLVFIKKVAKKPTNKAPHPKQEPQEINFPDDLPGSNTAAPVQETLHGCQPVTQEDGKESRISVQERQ

B1: anti-OX40 antibody HFB10-1E1hG1 (antibody, human IgG1, kappa, V domains shown)
VH: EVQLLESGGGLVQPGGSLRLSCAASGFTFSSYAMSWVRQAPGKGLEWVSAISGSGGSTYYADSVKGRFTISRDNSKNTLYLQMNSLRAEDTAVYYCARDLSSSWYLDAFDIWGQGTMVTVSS
VL: DIQMTQSPSSVSASVGDRVTITCRASQGISSWLAWYQQKPGKAPKLLIYAASSLQSGVPSRFSGSGSGTDFTLTISSLQPEDFATYYCQQANSFPLTFGGGTKLEIKR
notes: also called HFB301001
As to B1, the binding result in [1] and in test [6] was “no binding (tested: 100 nM)” throughout. In addition, the EC50 is 0.65 nM in test [2]; 2.02 nM in test [5]; 1.36 nM in test [7]; 0.09 nM in test [9]; 2 nM in [10]; 2.9 nM in test [11]. Also, the figures for the concentration for a half-maximal effect (EC50) in test [12], in test [14] and in test [15] were 0.19 nM, 2.94 nM and 0.17 nM, respectively. Besides, the “EC50 (read off the curve)” value in test [3] is approximately 0.2 nM. Moreover, the “CD16 signaling in CD16-NF-AT-Luc reporter Jurkat cells, EC50 (nM), E:T 1:1” value in [4] turned out to be 1.2 nM. In addition, the “CD16 signaling in CD16-NF-AT-Luc reporter Jurkat cells, EC50 (nM), E:T 3:1” value in test [4] is 0.7 nM. Also, the “CD16 signaling in CD16-NF-AT-Luc reporter Jurkat cells, EC50 (nM), E:T 6:1” value in test [4] was 0.5 nM. Also, the “CD16 signaling in CD16-NF-AT-Luc reporter Jurkat cells, EC50 (nM), E:T 12:1” value in test [4] was 0.3 nM. Also, the Kd was 4.5 nM in test [8] and 4.4 nM in [13]. In addition, the off-rate (koff) in test [8] and in test [13] was 0.00043 s⁻¹ throughout. Further, the kon in [8] and in [13] was 97000 M⁻¹ s⁻¹ in each case.

These data come from US20240317874A1 (HIFIBIO HK, published 2024).
